Data reported in patent US20090022728A1 (RINAT NEUROSCIENCE, published 2009).
Read-outs that look alike come from different tables or passages of the source.

Tests used:
[1] = target: T1, biotinylated Aβ1-40 peptide (biotinylated (N-biotinylated in Example 7)); assay: SPR, Fab over Aβ1-40 on SA chip
T1 construct: captured on streptavidin (SA) chip; also called Biotinylated Aβ peptide 1-40; Aβ1-40 on SA chip
Protocol: (§1) Affinities of 9TL Fab fragment and its variants Fab fragments were determined by Surface Plasmon Resonance (SPR) system (BIAcore 3000™, BIAcore, Inc., Piscaway, N.J.). SA chips (streptavidin) were used according to the supplier's instructions. Biotinylated Aβ peptide 1-40 was diluted into HBS-EP (10 mM HEPES pH 7.4, 150 mM NaCl, 3 mM EDTA, 0.005% P20) and injected over the chip at a concentration of 0.005 mg/mL. Using variable flow time across the individual chip channels, two ranges of antigen density were achieved: 10-200 response units (RU) for detailed kinetic studies and 500-600 RU for concentration studies and screening. […] HBS-EP buffer was used as running buffer for all the BIAcore assays. […] The concentrations of the Fab proteins were determined by ELISA and/or SDS-PAGE electrophoresis using a standard Fab of known concentration (determined by amino acid analysis). Kinetic association rates (kₒₙ) and dissociation rates (koff) were obtained simultaneously by fitting the data to a 1:1 Langmuir binding model (Karlsson, R. Roos, H. Fagerstam, L. Petersson, B. (1994). Methods Enzymology 6. 99-110) using the BIAevaluation program. Equilibrium dissociation constant (KD) values were calculated as koff/kₒₙ.

[2] = target: T1, biotinylated Aβ1-40 peptide; assay: SPR, Fab over Aβ1-40 on SA chip; remark: listed apart in the source
Target sequence in this assay (peptide, as listed by the source): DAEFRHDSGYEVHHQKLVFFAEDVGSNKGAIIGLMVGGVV

[3] = target: T2, Aβ1-43 peptide; assay: SPR peptide competition, Aβ1-40 on SA chip
T2 construct: also called 1-43 (WT)
Protocol: (§2) To determine the epitope on Aβ polypeptide that is recognized by antibody 9TL, Surface Plasmon Resonance (SPR, Biacore 3000) binding analysis was used. Aβ₁₋₄₀ polypeptide coupled to biotin (Global Peptide Services, CO) was immobilized on a streptavidin-coated chip (SA chip). The binding of Aβ antibodies Fab fragments (at 50 nM) to the immobilized Aβ₁₋₄₀ in the absence or presence of different soluble fragments of the Aβ peptide (at […], from American Peptide Company Inc., CA). Amino acid sequences of Aβ₁₋₄₀, Aβ₁₋₄₂, and Aβ₁₋₄₃ are shown in below in Table 4. The Aβ peptides which displaced binding of antibody 9TL Fab fragment to Aβ₁₋₄₀ were Aβ₂₈₄₀, Aβ₁₋₄₀, Aβ₃₃₋₄₀, and Aβ₁₇₋₄₀, respectively (FIG. 2). Thus, antibody 9TL binds to a C-terminal peptide (33-40) of Aβ₁₋₄₀.

[4] = target: T3, Aβ28-40 peptide; assay: SPR peptide competition, Aβ1-40 on SA chip
T3 peptide: KGAIIGLMVGGVV
Protocol: as §2

[5] = target: T4, Aβ28-42 peptide; assay: SPR peptide competition, Aβ1-40 on SA chip
T4 peptide: KGAIIGLMVGGVVIA
Protocol: as §2

[6] = target: T5, Aβ33-40 peptide; assay: SPR peptide competition, Aβ1-40 on SA chip
T5 construct: also called C-terminal peptide (33-40) of Aβ1-40
T5 peptide: GLMVGGVV
Protocol: as §2

[7] = target: T6, Aβ17-40 peptide; assay: SPR peptide competition, Aβ1-40 on SA chip
T6 peptide: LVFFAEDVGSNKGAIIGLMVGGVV
Protocol: as §2

[8] = target: T1, biotinylated Aβ1-40 peptide; assay: SPR, Fab over Aβ1-40 on SA chip; KD=koff/kon
[9] = target: T1, biotinylated Aβ1-40 peptide; assay: SPR, Fab over Aβ1-40 on SA chip; Fab fragment; Aβ1-40 immobilized on SA chip
Protocol: as §1, with “Kinetic association rates (kₒₙ) and dissociation rates (koff) were obtained simultaneously by fitting the data to a 1:1 Langmuir binding model (Karlsson, R. Roos, H. Fagerstam, L. Petersson, B. (1994). Methods Enzymology 6. 99-110) using the BIAevaluation program.” left out
All amino acid substitutions of the variants shown in Table 3 are described relative to the sequence of 9TL. KD and other kinetic parameters were determined by BIAcore analysis described above with Aβ₁₋₄₀ immobilized on SA chip.

T2 sequence (peptide, as listed by the source): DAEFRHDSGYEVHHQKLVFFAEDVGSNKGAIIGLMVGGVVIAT

B1: 9TL Fab fragment (Fab, V domains shown)
VH: QVQLVQSGAEVKKPGASVKVSCKASGYYTEAYYIHWVRQAPGQGLEWMGRIDPATGNTKYAPRLQDRVTMTRDTSTSTVYMELSSLRSEDTAVYYCASLYSLPVYWGQGTTVTVSS
VL: DVVMTQSPLSLPVTLGQPASISCKSSQSLLYSDAKTYLNWFQQRPGQSPRRLIYQISRLDPGVPDRFSGSGSGTDFTLKISRVEAEDVGVYYCLQGTHYPVLFGQGTRLEIKR
notes: Fab from E. coli with human IgG2 CH1 (P01859) and human kappa constant domain (CAA09181)
B1 was tested, and the Kd [1] was 1.13 nM, the koff [1] was 0.000359 s⁻¹ and the kon [1] was 318000 M⁻¹ s⁻¹. The koff [2] was 0.000359 s⁻¹, the binding result [3] was “no binding (tested: 10 µM (FIG. 2 legend; text prints 10 pM))” and the binding result [4] was “binds”. B1: no binding (tested: 10 µM (FIG. 2 legend; text prints 10 pM)) [5]; binds [6]; binds [7]. For the same binder, the Kd [8] was 1.13 nM and the kon [9] was 318000 M⁻¹ s⁻¹.
